Data on seven molecules can be found in publication doi:10.1101/609503 (bioRxiv, 2019).

B1: PBP4 (native) (enzyme, E. coli, UniProt P24228 21-477, looked up)
chain: ANVDEYITQLPAGANLALMVQKVGASAPAIDYHSQQMALPASTQKVITALAALIQLGPDFRFTTTLETKGNVENGVLKGDLVARFGADPTLKRQDIRNMVATLKKSGVNQIDGNVLIDTSIFASHDKAPGWPWNDMTQCFSAPPAAAIVDRNCFSVSLYSAPKPGDMAFIRVASYYPVTMFSQVRTLPRGSAEAQYCELDVVPGDLNRFTLTGCLPQRSEPLPLAFAVQDGASYAGAILKDELKQAGITWSGTLLRQTQVNEPGTVVASKQSAPLHDLLKIMLKKSDNMIADTVFRMIGHARFNVPGTWRAGSDAVRQILRQQAGVDIGNTIIADGSGLSRHNLIAPATMMQVLQYIAQHDNELNFISMLPLAGYDGSLQYRAGLHQAGVDGKVSAKTGSLQGVYNLAGFITTASGQRMAFVQYLSGYAVEPADQRNRRIPLVRFESRLYKDIYQNN
B5: His-PBP7 (enzyme, E. coli, UniProt P0AFI5 26-310, looked up)
chain: KTAAATTASQPEIASGSAMIVDLNTNKVIYSNHPDLVRPIASISKLMTAMVVLDARLPLDEKLKVDISQTPEMKGVYSRVRLNSEISRKDMLLLALMSSENRAAASLAHHYPGGYKAFIKAMNAKAKSLGMNNTRFVEPTGLSVHNVSTARDLTKLLIASKQYPLIGQLSTTREDMATFSNPTYTLPFRNTNHLVYRDNWNIQLTKTGFTNAAGHCLVMRTVINNKPVALVVMDAFGKYTHFADASRLRTWIETGKVMPVPAAALSYKKQKAAQMAAAGQTAQND

The target of one data set is T1, PBP1A (E. coli, UniProt P02918 1-850, NT647 RED-NHS dye on amines (fl-PBP1A)).
T1 sequence (looked up): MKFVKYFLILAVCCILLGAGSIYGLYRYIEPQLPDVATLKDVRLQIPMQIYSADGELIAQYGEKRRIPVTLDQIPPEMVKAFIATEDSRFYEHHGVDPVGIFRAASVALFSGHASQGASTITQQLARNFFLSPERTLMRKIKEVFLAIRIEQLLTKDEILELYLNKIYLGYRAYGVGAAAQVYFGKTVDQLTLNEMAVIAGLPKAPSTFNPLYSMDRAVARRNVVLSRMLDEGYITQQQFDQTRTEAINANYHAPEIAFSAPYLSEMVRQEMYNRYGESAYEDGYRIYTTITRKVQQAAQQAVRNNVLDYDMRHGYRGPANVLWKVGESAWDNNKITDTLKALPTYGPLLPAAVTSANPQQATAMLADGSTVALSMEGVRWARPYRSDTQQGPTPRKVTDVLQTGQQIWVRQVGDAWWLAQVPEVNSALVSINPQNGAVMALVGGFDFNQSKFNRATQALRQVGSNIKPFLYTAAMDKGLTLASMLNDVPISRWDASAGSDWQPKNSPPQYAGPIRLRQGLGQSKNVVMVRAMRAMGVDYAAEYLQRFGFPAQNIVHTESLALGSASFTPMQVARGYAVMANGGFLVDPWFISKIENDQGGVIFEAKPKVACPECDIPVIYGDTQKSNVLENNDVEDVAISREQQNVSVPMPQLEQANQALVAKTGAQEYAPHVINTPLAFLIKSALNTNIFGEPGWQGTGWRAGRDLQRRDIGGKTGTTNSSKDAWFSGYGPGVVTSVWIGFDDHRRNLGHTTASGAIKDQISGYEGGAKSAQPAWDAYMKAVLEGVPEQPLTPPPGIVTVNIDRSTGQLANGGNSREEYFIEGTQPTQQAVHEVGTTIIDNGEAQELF
Put plainly: MST.

The data set “AUC” concerns the molecule itself. The experiment in a line: AUC.
The next data set deals with T2, MepM (E. coli, UniProt P0AFS9 41-440).
T2 sequence (looked up): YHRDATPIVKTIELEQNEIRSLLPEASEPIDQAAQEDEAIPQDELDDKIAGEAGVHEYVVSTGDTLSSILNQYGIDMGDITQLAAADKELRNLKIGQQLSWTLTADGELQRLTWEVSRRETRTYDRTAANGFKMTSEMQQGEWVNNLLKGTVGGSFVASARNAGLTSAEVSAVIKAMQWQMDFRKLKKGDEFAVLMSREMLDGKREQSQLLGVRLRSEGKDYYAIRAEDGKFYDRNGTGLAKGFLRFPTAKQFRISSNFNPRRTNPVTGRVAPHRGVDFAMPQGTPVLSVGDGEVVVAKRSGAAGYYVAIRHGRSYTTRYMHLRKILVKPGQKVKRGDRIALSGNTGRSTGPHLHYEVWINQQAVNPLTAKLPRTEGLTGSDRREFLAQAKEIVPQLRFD
The experiment in a line: MST.

The data set “MST” concerns the molecule itself. The experiment in a line: MST.
Data set [1] has as its target B1. The experiment in a line: MST.
In the data set “His-PBP7” the target is B5. The experiment in a line: pull-down.
Data set [2] has as its target B1. Put plainly: pull-down.
Data set [3] has as its target preformed NlpI-PBP4 complex (E. coli, UniProt P0AFB1 19-294; P24228 21-477). The experiment in a line: MST.

By Kd is commonly meant the equilibrium constant for the complex coming apart. The low end stands for tighter binding, the high end for weaker binding. A word on the stoichiometry N: it is the number of molecules, sites or subunits per partner or assembly.

In turn, B1 had an equilibrium dissociation constant (Kd) in the data set with PBP1A of 106 nM. This lies in the sub-micromolar range.

B2: NlpI (soluble version, residues 19-294) (natural protein, E. coli, UniProt P0AFB1 19-294, looked up)
chain: CSNTSWRKSEVLAVPLQPTLQQEVILARMEQILASRALTDDERAQLLYERGVLYDSLGLRALARNDFSQALAIRPDMPEVFNYLGIYLTQAGNFDAAYEAFDSVLELDPTYNYAHLNRGIALYYGGRDKLAQDDLLAFYQDDPNDPFRSLWLYLAEQKLDEKQAKEVLKQHFEKSDKEQWGWNIVEFYLGNISEQTLMERLKADATDNTSLAEHLSETNFYLGKYYLSLGDLDSATALFKLAVANNVHNFVEHRYALLELSLLGQDQDDLAESDQQ
modifications: NT647 RED-NHS dye on amines where used as the labelled partner (fl-NlpI)
Turning to B2, the “stoichiometry N” value in the data set “AUC” worked out at 2. Besides, the dissociation constant (Kd) in the data set with MepM is 152 nM; in the data set “MST”, 126 nM; in the data set with PBP4 (native) [1], 177 nM.

B3: tagless NlpI (natural protein)
chain: CSNTSWRKSEVLAVPLQPTLQQEVILARMEQILASRALTDDERAQLLYERGVLYDSLGLRALARNDFSQALAIRPDMPEVFNYLGIYLTQAGNFDAAYEAFDSVLELDPTYNYAHLNRGIALYYGGRDKLAQDDLLAFYQDDPNDPFRSLWLYLAEQKLDEKQAKEVLKQHFEKSDKEQWGWNIVEFYLGNISEQTLMERLKADATDNTSLAEHLSETNFYLGKYYLSLGDLDSATALFKLAVANNVHNFVEHRYALLELSLLGQDQDDLAESDQQ
As to B3, the binding result with His-PBP7 is recorded as “binds”.

B4: PBP7 (enzyme, E. coli, UniProt P0AFI5 26-310, looked up)
chain: KTAAATTASQPEIASGSAMIVDLNTNKVIYSNHPDLVRPIASISKLMTAMVVLDARLPLDEKLKVDISQTPEMKGVYSRVRLNSEISRKDMLLLALMSSENRAAASLAHHYPGGYKAFIKAMNAKAKSLGMNNTRFVEPTGLSVHNVSTARDLTKLLIASKQYPLIGQLSTTREDMATFSNPTYTLPFRNTNHLVYRDNWNIQLTKTGFTNAAGHCLVMRTVINNKPVALVVMDAFGKYTHFADASRLRTWIETGKVMPVPAAALSYKKQKAAQMAAAGQTAQND
modifications: NT647 RED-NHS dye on amines where used as the labelled partner (fl-PBP7)
On to B4, for which the Kd in the data set with PBP1A amounted to 101 nM. Besides, the binding result with PBP4 (native) [1] is “binds”. B5: in the data set with PBP4 (native) [2], the binding result is “binds”.

B6: LpoA (natural protein, E. coli, UniProt P45464 27-678, looked up)
chain: CGTHTPDQSTAYMQGTAQADSAFYLQQMQQSSDDTRINWQLLAIRALVKEGKTGQAVELFNQLPQELNDAQRREKTLLAVEIKLAQKDFAGAQNLLAKITPADLEQNQQARYWQAKIDASQGRPSIDLLRALIAQEPLLGAKEKQQNIDATWQALSSMTQEQANTLVINADENILQGWLDLQRVWFDNRNDPDMMKAGIADWQKRYPNNPGAKMLPTQLVNVKAFKPASTNKIALLLPLNGQAAVFGRTIQQGFEAAKNIGTQPVAAQVAAAPAADVAEQPQPQTVDGVASPAQASVSDLTGEQPAAQPVPVSAPATSTAAVSAPANPSAELKIYDTSSQPLSQILSQVQQDGASIVVGPLLKNNVEELLKSNTPLNVLALNQPENIENRVNICYFALSPEDEARDAARHIRDQGKQAPLVLIPRSSLGDRVANAFAQEWQKLGGGTVLQQKFGSTSELRAGVNGGSGIALTGSPITLRATTDSGMTTNNPTLQTTPTDDQFTNNGGRVDAVYIVATPGEIAFIKPMIAMRNGSQSGATLYASSRSAQGTAGPDFRLEMEGLQYSEIPMLAGGNLPLMQQALSAVNNDYSLARMYAMGVDAWSLANHFSQMRQVQGFEINGNTGSLTANPDCVINRNLSWLQYQQGQVVPVS
modifications: NT647 RED-Maleimide dye on cysteines where used as the labelled partner (fl-LpoA)
Regarding B6, in data set [3], the binding result is given as “binds”.

B7: MepS(C68A) (enzyme, E. coli, UniProt P0AFV4 27-188, looked up)
chain: CSANNTAKNMHPETRAVGSETSSLQASQDEFENLVRNVDVKSRIMDQYADWKGVRYRLGGSTKKGIDASGFVQRTFREQFGLELPRSTYEQQEMGKSVSRSNLRTGDLVLFRAGSTGRHVGIYIGNNQFVHASTSSGVIISSMNEPYWKKRYNEARRVLSRS
In the data set with PBP1A, B7 returned a Kd of 91 nM.
